Assay [1] concerns the target T1, RAB11 (Homo sapiens, UniProt P62491).
T1 construct: incubated in pre-cleared lysate from OVCAR3 cells, which express RAB11 and RAB25; endogenous in cells; host or cells: OVCAR3
T1 sequence (P62491 1-216): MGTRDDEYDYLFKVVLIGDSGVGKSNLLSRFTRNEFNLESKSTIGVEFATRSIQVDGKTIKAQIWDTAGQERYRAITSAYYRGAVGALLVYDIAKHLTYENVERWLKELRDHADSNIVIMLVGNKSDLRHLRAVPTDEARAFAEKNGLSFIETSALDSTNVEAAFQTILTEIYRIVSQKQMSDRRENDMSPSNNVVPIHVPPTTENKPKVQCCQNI
Description: Biotin-RFP pulldown from OVCAR3 lysate, Western blot for RAB11. Type of assay: binding. To be noted: relative to mock or negative control RFP31. As to the method: (§1) Optimized RFP peptides were synthesized with an amino-terminal diethyleneglycol-biotin moiety. The peptides were immobilized on streptavidin-agarose resin/beads and incubated in pre-cleared lysate from OVCAR3 cells, which express RAB11 and RAB25. The beads were washed, and the protein was eluted and used for Western blot analysis to identify retained RAB11 and RAB25 (FIG. 24). […] The signal is similar to the relative binding affinities and ALPHASCREEN® IC50 observed for RFP peptides.
For orientation: Immunoblotting shows a protein as a band on a membrane.

Assay [2] addresses T2, RAB25 (Homo sapiens, UniProt P57735).
T2 construct: incubated in pre-cleared lysate from OVCAR3 cells, which express RAB11 and RAB25; endogenous in cells; host or cells: OVCAR3
T2 sequence (P57735 1-213): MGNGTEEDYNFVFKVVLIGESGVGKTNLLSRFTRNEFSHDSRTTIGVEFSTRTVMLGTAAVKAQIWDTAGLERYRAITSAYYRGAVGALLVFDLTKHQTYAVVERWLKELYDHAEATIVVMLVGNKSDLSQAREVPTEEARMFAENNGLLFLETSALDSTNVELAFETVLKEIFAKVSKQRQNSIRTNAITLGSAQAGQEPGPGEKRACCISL
Put plainly: Biotin-RFP pulldown from OVCAR3 lysate, Western blot for RAB25. To be noted: relative to mock or negative control RFP31. The format is binding. As to the method: as §1

For assay [3], the system named is AKT phosphorylated at S473 (p473-AKT). Put plainly: AKT phosphorylation at S473 in OVCAR3 cells (Western blot). Type of assay: cell-based, Human. Further details: dose or concentration left out as unconfirmed. To be noted: OVCAR3 cells treated with RFP26 for 24 hours. From the text: AKT, also known as Protein Kinase B (PKB), is a serine/threonine-specific protein kinase that is associated with tumor cell survival, proliferation, and invasiveness. The activation of AKT is also one of the most frequent alterations observed in human cancer and tumor cells, thus deregulation of the AKT plays a pivotal role in tumor biology (Stuenaes et al., Br. J. Pharmacol. (2010) 160(1):116-29). Full AKT activation requires phosphorylation by activating kinases on two residues: threonine 308 (T308) and serine 473 (S473). Hyperactivation of AKT is associated with resistance to apoptosis as well as increased cell proliferation and metabolism. […] To assess the affect of RFP26 on AKT phosphorylation in OVCAR3 cells, OVCAR3 cells were treated with […] RFP26 for 24 hours. The cells were then lysed, and the lysate was used in a Western blot to detect AKT phosphorylated at S473 (p473-AKT) and total AKT (FIG. 25A).

The target in assay [4] is T3, RAB25 (Homo sapiens, UniProt P57735).
T3 construct: RAB25 (residues E7-Q180) was expressed with an N-terminal GST- and hexahistidine tag; made in house; host or cells: Escherichia coli BL21(DE3) pLysS
T3 sequence (P57735 7-180): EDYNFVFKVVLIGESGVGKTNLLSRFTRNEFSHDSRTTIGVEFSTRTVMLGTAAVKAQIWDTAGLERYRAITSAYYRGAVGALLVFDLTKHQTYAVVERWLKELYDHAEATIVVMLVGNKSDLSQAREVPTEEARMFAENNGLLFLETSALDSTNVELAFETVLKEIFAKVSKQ
Put plainly: Fluorescence polarization binding of FITC-FIP/FITC-RFP peptides to RAB25. To be noted: FITC peptide 15 nM. As to the method: (§2) RAB11/25 protein binding assays were performed by incubating FITC-FIP or FITC-RFP (stapled FIP derivatives) peptides (15 nM) with three-fold dilutions of recombinantly-expressed, purified RAB11, RAB25 or a various epitope-tagged version of either in protein-binding buffer (25 mM Tris-HCl, pH 8.0, 150 mM NaCl, 1 mM EDTA, 1 mM DTT, 10 mM MgCl2, 10 mM GTP). Dilutions and incubations were made in 384-well, black flat-bottom plates (Corning) to a total volume of 40 μL and equilibrated for 60 minutes. Polarization was measured on a Spectramax-M5 multi-label plate reader with λex=485 nm and λem=525 nm. Polarization was calculated according to the standard equation: P=(V−H)/(V+H), where P=polarization, V=vertical emission intensity and H=horizontal emission intensity. Kd values were determined by fitting data to a variable-slope sigmoidal binding curve using Prizm 4 graphing software.
(§3) RAB11 and RAB25 proteins were expressed and purified in Escherichia coli strain BL21(DE3) pLysS (Stratagene) as epitope-tagged fusion proteins in various vectors (Novagen). RAB25 (residues E7-Q180) was expressed with an N-terminal GST- and hexahistidine tag with internal thrombin and TEV cleavage sites (GST-H6-RAB25) (SEQ ID NO: 86) in a pET41-1 vector (Novagen) or with an N-terminal hexahistidine tag alone with an internal thrombin cleavage site (H6-RAB25) (SEQ ID NO: 86) in a pET28 vector (Novagen). FIP3 protein (residues 649-756) was expressed with an N-terminal GST-tag with an internal TEV cleavage site (GST-FIP3) in a pGEX6p-1 vector (Novagen). RAB11 (residues 1-175) was expressed with an N-terminal GST-tag with an internal thrombin cleavage site in a pGEX5x-1 vector (Novagen). Transformed bacteria was grown at 37° C. until an OD600=0.8 was reached, at which point the culture was induced with 0.5 mM isopropyl β-D-1-thiogalactopyranoside (IPTG). Induced cells were grown at 30° C. for 6 hours, pelleted and lysed in binding buffer (25 mM Tris-HC;, pH 8.0, 150 mM NaCl, 1 mM EDTA, 1 mM DTT, 10 mM MgCl2, 10 mM GTP) supplemented with a complete protease inhibitor tablet (Roche) by sonication on ice. The lysate was centrifuged at 14,000 rpm to clear insoluble matter prior to loading onto Ni-NTA resin (Qiagen) for hexahistdine-tagged constructs or on GST-bind agarose resin (Biorad) for GST-tagged constructs. The protein-bound bead slurry was washed 4× with ˜20 mL of buffer and retained protein was eluted with either 250 mM imidazole or 20 mM glutathione in buffer for H6-(SEQ ID NO: 86) or GST-proteins, respectively. The eluent was concentrated using a 30 kD exclusion filter and purified by size-exclusion chromatography on a Superdex-75 Column (Amersham Pharmacia Biotech). Fractions containing purified protein were pooled, concentrated and dialyzed into binding buffer or other similar buffer for specific biochemical assays.
(Polarisation of emitted light reports the rotation of a fluorescent probe.)

Assay [5] concerns RAB25. Described as above. As to the method: as §2, §3
The target in assay [6] is T4, RAB11 (Homo sapiens, UniProt P62491).
T4 construct: RAB11 (residues 1-175) was expressed with an N-terminal GST-tag with an internal thrombin cleavage site; GST (thrombin cleavage site between tag and RAB11) (N); made in house; host or cells: Escherichia coli BL21(DE3) pLysS
T4 sequence (P62491 1-175): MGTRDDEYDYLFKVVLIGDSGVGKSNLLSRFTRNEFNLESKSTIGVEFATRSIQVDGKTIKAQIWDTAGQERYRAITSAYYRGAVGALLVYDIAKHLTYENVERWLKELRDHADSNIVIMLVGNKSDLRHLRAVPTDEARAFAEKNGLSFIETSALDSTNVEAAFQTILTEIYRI
Description: Fluorescence polarization binding of FITC-FIP/FITC-RFP peptides to RAB11. To be noted: FITC peptide 15 nM, fluorescence polarization. As to the method: Fluorescence polarization (FP) was used to measure FIP peptide binding to RAB11 and RAB25 proteins. […] This indicated specificity in the binding measurement, as this subtle change would be expected to perturb binding.
as §2, §3

Another assay relates to OVCAR3 cells. Put plainly: Transwell migration assay. Type of assay: cell-based, Human. To be noted: 15 μM for 24 hours, collagen-coated 8-micron transwells. As to the method: OVCAR3 cells were seeded on collagen-coated, 8-micron transwells in DMEM media. Cells were treated with 15 μM RFP26, RFP31 or vehicle for 24 hours during cell migration. The cells in the wells were fixed, and migrating cells were stained and counted (FIGS. 25B and 25C).

“Also recorded” adds a separate entry of the source. Bridge positions count the residues as written; N and C are the ends. Square brackets hold non-standard residues; d marks the D form. Ends that are not written are not given here. S5 = C=CCCC[C@](C)(N)C(=O)O

With “RFP26: stapled FIP peptide containing an E-R mutation to increase overall charge, SEQ ID NO: 83 (RINFRLQN[S5]IDR[S5]IVRINETNPSILRVK; staple 9-13; not fully specified (C-terminus))”, the “binding to and retention of RAB11” value with RAB11 [1] was “significant binding to and retention”. In addition, the “binding to and retention of RAB25” value with RAB25 [2] is “significant binding to and retention”. In addition, the “AKT phosphorylation at S473” value in assay [3] is “decreased AKT phosphorylation at S473”. For the same substance, the “binding affinity to RAB25” value with RAB25 [4] is given as “retained binding affinity; also recorded: high affinity”. Further, in the assay on RAB25 [5], the “relative affinity RAB11 versus RAB25 (selectivity)” value was “some selectivity for RAB25”. For the same substance, the “binding affinity to RAB11” value with RAB11 [6] is “high affinity”. The OVCAR3 cellular migration entry in the assay with OVCAR3 cells is reported as “inhibited OVCAR3 cellular migration”.

Source of the values: US9487562B2, “Stabilized polypeptides as regulators of RAB GTPase function” (President and Fellows of Harvard College, priority 2011, dated 2016).
